Measurements reported in publication PMC5897774, “Mitotic spindle association of TACC3 requires Aurora‐A‐dependent stabilization of a cryptic α‐helix” (The EMBO Journal, 2018).
Each block holds one molecule with its values, some of them ahead of it. Non-standard residues stand in square brackets, D forms with d. No end group written: not given here. pS = N[C@@H](COP(=O)(O)O)C(=O)O; FAM = fluorescein label

B2: CHC 1–574 (clathrin heavy chain propeller‐ankle fragment) (domain or fragment, UniProt Q00610 1-574, looked up)
chain: MAQILPIRFQEHLQLQNLGINPANIGFSTLTMESDKFICIREKVGEQAQVVIIDMNDPSNPIRRPISADSAIMNPASKVIALKAGKTLQIFNIEMKSKMKAHTMTDDVTFWKWISLNTVALVTDNAVYHWSMEGESQPVKMFDRHSSLAGCQIINYRTDAKQKWLLLTGISAQQNRVVGAMQLYSVDRKVSQPIEGHAASFAQFKMEGNAEESTLFCFAVRGQAGGKLHIIEVGTPPTGNQPFPKKAVDVFFPPEAQNDFPVAMQISEKHDVVFLITKYGYIHLYDLETGTCIYMNRISGETIFVTAPHEATAGIIGVNRKGQVLSVCVEEENIIPYITNVLQNPDLALRMAVRNNLAGAEELFARKFNALFAQGNYSEAAKVAANAPKGILRTPDTIRRFQSVPAQPGQTSPLLQYFGILLDQGQLNKYESLELCRPVLQQGRKQLLEKWLKEDKLECSEELGDLVKSVDPTLALSVYLRANVPNKVIQCFAETGQVQKIVLYAKKVGYTPDWIFLLRNVMRISPDQGQQFAQMLVQDEEPLADITQIVDVFMEYNLIQQCTAFLLDALKNNR
notes: source: modified pGEX vector

Columns and labels:
[1] = molecular target: FAM‐WT TACC3 519–570 (human) (UniProt Q9Y6A5); experiment: fluorescence polarisation; FAM‐TACC3 peptides with Aurora‐A; performed as in Richards et al, 2016; triplicate; one‐site total binding fit; Kd ± SE
[2] = molecular target: FAM‐TACC3 522–536 F525A (human) (UniProt Q9Y6A5); experiment: as above
[3] = molecular target: FAM‐TACC3 522–536 L532A (human) (UniProt Q9Y6A5); experiment: as above
[4] = molecular target: FAM‐TACC3 522–536 (WT site 1 peptide) (human) (UniProt Q9Y6A5); experiment: as above
[5] = molecular target: FAM‐TACC3 522–536 R526A (human) (UniProt Q9Y6A5); experiment: as above
[6] = molecular target: FAM‐TACC3 522–536 phosphorylated on T534 (human) (UniProt Q9Y6A5); experiment: as above
[7] = NMR chemical shift index analysis of TACC3 549–570 helicity; assay type: physicochemical; conditions: 2 mM peptide, 20 mM Tris pH 7.2, 50 mM NaCl, 290 K, αH and αC secondary shifts
From the text: We used NMR spectroscopy to determine the extent to which these α‐helices are present in TACC3 in the absence of binding partners in solution. Chemical shift index (CSI) plots were created for phosphorylated and unphosphorylated TACC3^CID following standard methods (Fig 7D and E; Wishart & Sykes, 1994). In addition to calculating α‐proton chemical shifts we also measured secondary chemical shifts for α‐carbons. After the type of amino acid, the main contribution to chemical shifts of α‐carbons is the ψ angle and thus the backbone conformation. Proximity of charges or aromatic side chains which can strongly affect proton chemical shifts has virtually no effect on the chemical shifts of α‐carbons which makes them very robust probes of backbone conformation. […] We concluded that phosphorylation of S558 increases the propensity for α‐helix formation in TACC3, and we examined the structure to identify the mechanism.
For analysis of TACC3 549–570 helicity, synthetic peptides were weighed in to give a sample concentration of 2 mM in 20 mM Tris pH 7.2 and 50 mM NaCl. Spectra were recorded at a temperature of 290 K on a Bruker Avance‐Neo 600 MHz spectrometer equipped with a prodigy cryoprobe. Peptides were assigned using 2D NOESY, TOCSY and 13C HSQC spectra recorded with watergate and gradient coherence selection, respectively. […]

[8] = molecular target: WT Aurora‐A (of the FP assays) (human) (UniProt O14965)
[9] = molecular target: T1, CHC 1–574 (clathrin heavy chain propeller‐ankle fragment) (UniProt Q00610 1-574); experiment: FP
T1 chain: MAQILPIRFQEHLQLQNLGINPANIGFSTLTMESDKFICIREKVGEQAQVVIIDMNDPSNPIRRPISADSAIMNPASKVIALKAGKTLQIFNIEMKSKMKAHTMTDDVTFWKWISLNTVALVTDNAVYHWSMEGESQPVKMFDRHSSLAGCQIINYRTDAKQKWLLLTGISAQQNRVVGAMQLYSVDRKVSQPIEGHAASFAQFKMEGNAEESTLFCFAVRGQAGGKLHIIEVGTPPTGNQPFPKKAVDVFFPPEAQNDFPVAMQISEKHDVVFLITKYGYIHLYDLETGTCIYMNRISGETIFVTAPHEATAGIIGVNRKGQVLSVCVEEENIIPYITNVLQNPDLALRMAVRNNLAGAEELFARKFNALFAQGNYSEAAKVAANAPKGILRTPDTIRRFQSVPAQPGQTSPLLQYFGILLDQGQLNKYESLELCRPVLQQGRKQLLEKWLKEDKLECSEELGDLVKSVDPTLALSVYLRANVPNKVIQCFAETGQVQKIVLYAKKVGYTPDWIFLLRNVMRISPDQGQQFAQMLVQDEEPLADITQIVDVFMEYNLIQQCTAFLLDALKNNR

[10] = molecular target: T2, FAM‐phospho‐TACC3^CID Y560A (human, UniProt Q9Y6A5 549-570, Y560A, fluorescein (FAM) label; phosphoserine at 558); experiment: fluorescence polarisation; CHC proteins serially diluted in 20 mM HEPES–NaOH pH 7.5, 200 mM NaCl, 5 mM DTT; 50 nM FAM‐labelled TACC3 peptide; 30 min at room temperature; read at 25°C; conditions: both partners purified
T2 construct: TACC3, human, aa549–570 (TACC3^CID); source: FAM‐labelled peptide (FAM‐TACC3 peptides: PPR, Cambridge; Almac, Craigavon)
T2 peptide (looked up): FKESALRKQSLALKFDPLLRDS

[11] = molecular target: T3, FAM‐phospho‐TACC3^CID F563A (human, UniProt Q9Y6A5 549-570, F563A, fluorescein (FAM) label; phosphoserine at 558); experiment: as above; conditions: both partners purified
T3 construct: TACC3, human, aa549–570 (TACC3^CID); source: FAM‐labelled peptide (FAM‐TACC3 peptides: PPR, Cambridge; Almac, Craigavon)
T3 peptide (looked up): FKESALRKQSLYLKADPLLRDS

[12] = molecular target: T4, FAM‐TACC3 549–570 phosphorylated on S558 (FAM‐phospho‐TACC3^CID) (human, UniProt Q9Y6A5 549-570, fluorescein (FAM) label; phosphoserine at 558); experiment: as above; conditions: both partners purified
T4 construct: TACC3, human, aa549–570 (TACC3^CID); also called pTACC3^CID; FAM‐labelled pTACC3^CID; source: FAM‐labelled peptide (FAM‐TACC3 peptides: PPR, Cambridge; Almac, Craigavon)
T4 peptide (looked up): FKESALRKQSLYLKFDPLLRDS

[13] = molecular target: T5, FAM‐phospho‐TACC3^CID L559A (human, UniProt Q9Y6A5 549-570, L559A, fluorescein (FAM) label; phosphoserine at 558); experiment: as above; conditions: both partners purified
T5 construct: TACC3, human, aa549–570 (TACC3^CID); source: FAM‐labelled peptide (FAM‐TACC3 peptides: PPR, Cambridge; Almac, Craigavon)
T5 peptide (looked up): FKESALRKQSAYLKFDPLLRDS

TACC3 552-567 pS558 = molecular target: T6, TACC3 552-567 pS558 (Homo sapiens, also: FAM-labelled, place not given here); experiment: FP
T6 chain: SALRKQ[pS]LYLKFDPLL

TACC3 546-573 pS558 = molecular target: T7, TACC3 546-573 pS558 (Homo sapiens, phospho-Ser558; FAM-labelled); experiment: FP
T7 chain: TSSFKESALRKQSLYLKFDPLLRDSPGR

[14] = molecular target: The R555A mutation alone or in combination with K556A (FAM‐phospho‐TACC3^CID peptides); experiment: fluorescence polarisation; CHC proteins serially diluted in 20 mM HEPES–NaOH pH 7.5, 200 mM NaCl, 5 mM DTT; 50 nM FAM‐labelled TACC3 peptide; 30 min at room temperature; read at 25°C
[15] = molecular target: B2; experiment: as above; conditions: both partners purified
[16] = molecular target: T1, CHC 1–574 (clathrin heavy chain …); experiment: FP
Aurora‐A 122–403 D274N = molecular target: T8, Aurora‐A 122–403 D274N (human, UniProt O14965 122-403, D274N); experiment: NMR titration; 13C/15N‐labelled TACC3 peptide (300 μM) alone and in complex with Aurora‐A 122–403 D274N; 20 mM KPO4 pH 7.0, 50 mM NaCl, 1 mM DTT; 298 K; chemical shift perturbation; conditions: both partners purified
T8 construct: also called Aurora‐A^KD D274N; source: expressed and purified as described in previous work (Burgess et al, 2015)
T8 sequence (looked up): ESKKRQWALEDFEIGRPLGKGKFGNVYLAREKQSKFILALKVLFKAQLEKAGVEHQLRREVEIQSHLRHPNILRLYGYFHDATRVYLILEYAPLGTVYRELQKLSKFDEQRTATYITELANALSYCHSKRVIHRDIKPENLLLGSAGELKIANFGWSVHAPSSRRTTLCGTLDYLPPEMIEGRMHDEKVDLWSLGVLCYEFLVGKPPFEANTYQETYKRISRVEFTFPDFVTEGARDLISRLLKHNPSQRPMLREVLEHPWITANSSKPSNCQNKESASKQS

Molecule: WT Aurora‐A (of the FP assays) (from UniProt O14965 122-403) (domain or fragment)
Kd [1]: 3 µM
Kd [2]: 2300 µM
Kd [3]: 251 µM
Kd [4]: 20 µM
Kd [5]: 49 µM
Kd [6]: 14 µM

Molecule: FKESALRKQSLYLKFDPLLRDS [unphosphorylated peptide, synthetic TACC3 549–570 peptide, unphosphorylated, used for NMR]
propensity for helix formation (CSI) [7]: tendency towards helix formation

Molecule: TACC3 519–563‐H6c (WT TACC3^N‐ACIDH6c) (from UniProt Q9Y6A5 519-563) (domain or fragment)
32P‐ATP kinase assay with MBP as substrate: stimulation of Aurora‐A activity [8]: 8 fold

B1: FAM‐phospho‐TACC3^CID R555A, K556A (peptide)
peptide: {FAM}-FKESALAAQ[pS]LYLKFDPLLRDS
Kd [9]: 209 µM

Molecule: B2
fold reduction in affinity against WT [10]: ≥ 4 fold
fold reduction in affinity against WT [11]: ≥ 4 fold
fold increase in affinity against non‐phosphorylated TACC3^CID [12]: 4 fold
fold reduction in affinity against WT [13]: ≥ 4 fold
Kd (TACC3 552-567 pS558): 48 µM
Kd (TACC3 546-573 pS558): 39 µM
fold reduction in affinity against WT [14]: 4 to 5 fold

Now from value to molecule:

Kd [15]: 216 µM
B3: FAM‐non‐phosphorylated TACC3^CID (aa549–570) (peptide, UniProt Q9Y6A5 549-570, looked up)
peptide: {FAM}-FKESALRKQSLYLKFDPLLRDS
notes: TACC3, human, aa549–570 (TACC3^CID); also called unphosphorylated TACC3^CID peptide; S558; source: FAM‐labelled peptide (FAM‐TACC3 peptides: PPR, Cambridge; Almac, Craigavon)

Kd [16]: 345 µM
B4: FAM‐phospho‐TACC3^CID L566A, L567A (peptide)
chain: {FAM}-FKESALRKQ[pS]LYLKFDPAARDS

binding result (Aurora‐A 122–403 D274N): binds
B5: ^13C^15N TACC3 519–540 (domain or fragment, human, UniProt Q9Y6A5 519-540, looked up)
chain: ELKEESFRDPAEVLGTGAEVDY
modifications: also: 13C, 15N labelled
notes: TACC3, human, aa519–540 (stop codon at residue 541 of pETM6T1 TACC3 519–563); source: expressed and purified as described for 13C15N‐TACC3 519–563 (Burgess et al, 2015)
